Data as given in US20130189747A1, “Compositions Comprising A Polypeptide Having Cellulolytic Enhancing Activity And A Sulfur-Containing Compound And Uses Thereof” (priority 2010, published 2013).
Entries after “also recorded” stand apart in the source; their conditions may differ.

How the values were obtained:
Type in all cases: biochemical
[1] = system: Trichoderma reesei cellulase composition; experiment: Hydrolysis of AVICEL® (microcrystalline cellulose) by the Trichoderma reesei cellulase composition with/without GH61 polypeptide and sulfur-containing compound
Method: (§1) The effect of various sulfur-containing compounds on the cellulolytic enhancing activity of GH61 polypeptides was evaluated according to the procedures described below.

[2] = system: Trichoderma reesei cellulase composition; experiment: Hydrolysis of milled unwashed pretreated corn stover (PCS) by the Trichoderma reesei cellulase composition with/without GH61 polypeptide and sulfur-containing compound; conditions: for Enhancement of hydrolysis of milled unwashed PCS by the GH61 polypeptide: no sulfur-containing compound
Method: as §1

[3] = system: Trichoderma reesei cellulase composition; experiment: Hydrolysis of milled washed pretreated corn stover (PCS) by the Trichoderma reesei cellulase composition with/without GH61 polypeptide and sulfur-containing compound; conditions: for Enhancement of hydrolysis of milled washed PCS by the GH61 polypeptide: no sulfur-containing compound; for GH61 effect (Equation 4): in the absence of L-cysteine (Example 4); for Percent conversion of milled washed PCS: no L-cysteine
Method: as §1

B1: T. aurantiacus GH61A polypeptide: GH61A polypeptide having cellulolytic enhancing activity (SEQ ID NO: 14), recombinantly prepared in Aspergillus oryzae JaL250 (protein, listed as Thermoascus aurantiacus)
chain: MSFSKIIATAGVLASASLVAGHGFVQNIVIDGKYYGGYLVNQYPYMSNPPEVIAWSTTATDLGFVDGTGYQTPDIICHRGAKPGALTAPVSPGGTVELQWTPWPDSHHGPVINYLAPCNGDCSTVDKTQLEFFKIAESGLINDDNPPGIWASDNLIAANNSWTVTIPTTIAPGNYVLRHEIIALHSAQNQDGAQNYPQCINLQVTGGGSDNPAGTLGTALYHDTDPGILINIYQKLSSYIIPGPPLYTG
[1]; AVICEL®, day 1, in the absence of L-cysteine, all GH61 concentrations tested (5.6, 14, 28 mg per liter), FIG. 3B
  GH61 effect (Equation 4): 1
[1]; AVICEL®, day 1, intermediate L-cysteine concentrations, FIG. 3B
  GH61 polypeptide concentration at which the GH61 effect was maximal: approximately 15 mg per liter
[1]; in the absence of a sulfur-containing compound
  Effect of the GH61 polypeptide on hydrolysis of AVICEL® (microcrystalline cellulose) by the T. reesei cellulase composition: did not enhance; also recorded: no detectable effect
[2]; 1 day
  Enhancement of hydrolysis of milled unwashed PCS by the GH61 polypeptide: 19%
[2]; 3 days
  Enhancement of hydrolysis of milled unwashed PCS by the GH61 polypeptide: 21%
[2]; 7 days
  Enhancement of hydrolysis of milled unwashed PCS by the GH61 polypeptide: 19%
[2]; milled unwashed PCS, 7 days, in the absence of L-cysteine (Example 4)
  GH61 effect (Equation 4): 1.19±0.08
[3]; 1 day
  Enhancement of hydrolysis of milled washed PCS by the GH61 polypeptide: 14%
[3]; 3 days
  Enhancement of hydrolysis of milled washed PCS by the GH61 polypeptide: 31%
[3]; 7 days
  Enhancement of hydrolysis of milled washed PCS by the GH61 polypeptide: 31%
[3]; PCS, 3 days
  GH61 effect (Equation 4): 1.31±0.030
[3]; day 1, GH61 polypeptide at 10% (w/w) of the cellulase composition (2 mg per g cellulose)
  Percent conversion of milled washed PCS: 27±0.8%
[3]; day 1, GH61 polypeptide at 25% (w/w) of the cellulase composition (2 mg per g cellulose)
  Percent conversion of milled washed PCS: 27±0.8%
[3]; day 1, GH61 polypeptide at 50% (w/w) of the cellulase composition (2 mg per g cellulose)
  Percent conversion of milled washed PCS: 27±0.8%
[3]; day 3, GH61 polypeptide at 10% (w/w) of the cellulase composition (2 mg per g cellulose)
  Percent conversion of milled washed PCS: 55±3%
[3]; day 3, GH61 polypeptide at 25% (w/w) of the cellulase composition (2 mg per g cellulose)
  Percent conversion of milled washed PCS: 57±0.5%
[3]; day 3, GH61 polypeptide at 50% (w/w) of the cellulase composition (2 mg per g cellulose)
  Percent conversion of milled washed PCS: 59±2%
[3]; milled washed PCS, 7 days
  GH61 effect (Equation 4): approximately 1.31±0.03
